The record followed here is the DeepSol protein solubility set.

The data set in a line: soluble on expression in E. coli; label from the status in PepcDB or PDB records.
“DKDNPKGLPMLSVDEPTLTMDFMVNTSPLAGTEGKFVTSRQIRDRLQKELLTNVALRVEDTADADVFRVSGRGELHLTILLENMRREGYELAVGKPRVVYRDIDGQKCEPYENLTVDVPDDNQGAVMEELGRRRGELTNMESDGNGRTRLEYHIPARGLIGFQGEFMTLTRGVGLMSHVFDDYAPVKPDMPGRHNGVLVSQEQGEAVAYALWNLEDRGRMFVSPNDKIYEGMIIGIHSRDNDLVVNPLKGKKLTNIRASGTDEAVRLTTPIKLTLEGAVEFIDDDELVEITPQSIRLRKRYLSELERRRHFKKLD”: the “soluble on expression in E. coli” value is “not soluble”.

As to “MSLVSYVEVIKNGETISSCFQPFQKNENYGTITSANEQITPVIFHNLIMDMVLPKVVPIKGNKVTKMSMNLIDGFDCFYSTDDHDPKTVYVCFTLVDMPKILPIRILSGLQEYESNATNELLSSHVGQILDSFHEELVEYRNQTLNSSGNGQSSNGNGQNTISDIGDATEDQIKDVIQIMNDNIDKFLERQERVSLLVDKTSQLNSSSNKFRRKAVNIKEIMWWQKVKNITLLTFTIILEGHHHHHH”, the “soluble on expression in E. coli” value is “soluble”.

For “MGSDKIHHHHHHMTSRTPLVSVLPDFPWDSLASAKAKAASHPDGIVNLSVGTPVDPVAPSIQIALAEAAGFSGYPQTIGTPELRAAIRGALERRYNMTKLVDASLLPVVGTKEAIALLPFALGISGTVVIPEIAYPTYEVAVVAAGCTVLRSDSLFKLGPQIPSMMFINSPSNPTGKVLGIPHLRKVVKWAQENNVILAADECYLGLGWDDENPPISILDPRVCDGDHTNLIAIHSLSKTSNLASYRAGYLVGDPALIGELTEVRKNLGLMVPFPIQQAMIAALNDDDQEAGQKLTYAIRRAKLMRALLESGFQVDNSEAGLYLWATREEPCRDTVDWFAERGILVAPGDFYGPRGAQHVRVAMTETDERVDAFVSRLS”, the “soluble on expression in E. coli” value is “not soluble”.

As to “MPQNEHIELHRKRHGRRLDHEERQRKKLARAAHDRSQMAKTLRGHKAKLYHKKRYSEKVEMRKLLKQHEEKDQKNTVEQPDKGAVPAYLLDRQQQTSGTVLSNMIKQKRKQKAGKFNVPIPQVRAVSDAEAFKVVKTGKTNRKGWKRMVTKVTFVGESFTRKPAKFERFIRPMGLRFKKAHVTHPELQTTFHLPIVGVKKNPSSQMYTSLGVITKGTILEVNVSELGMVTQGGKVVWGKFAQVTNNPENDGCINAVLLI”, the “soluble on expression in E. coli” value is listed as “not soluble”.

As to “MGSDKIHHHHHHMKNRDWYTSLVSGLLFPLQERLKDHSTVSVRKALELSQWWNRERLENLQLLKLRHLLAEAEAHVPYYRRIFAEIGFKAAEVSSLADLARLPLLDKPAIRADTEALKSQKARSLRSFNTGGSSGEPLTFYIGRERVSHDVAAKWRATRWWDVDIGDPEMVVWGSPIELGAQDRLRMLRDRLLRTRLFPAFEMSEQKLDRFLGELRAAPPRMFFGYPSALSHIARHAQARGQRMDDLGINVAFVTSERLYDEQRQQISKTFGCPVANGYGGRDAGFIAHECPEGGMHITAEDIIVEIVDRQGVPLPCGEAGEIIVTHLSTAEFPFIRYRTGDIGILDDRICRCGRGLPLLREIQGRSTDFVVAQDGTVMHGLALIYILRELPQISHFKIIQESLNLIHIWVVSGAKLDREITAKIEEEFKARLGQSVEVLIEETTEIPAEKSGKFRYVISKIAGA”, the “soluble on expression in E. coli” value is listed as “not soluble”.

Consider “MGSDKIHHHHHHMDIREKKTPPTLAPGQTSNPATSLPPRTVEGLRDLVVSIGRDQAEVKLGAKALTVLAHLVERPEEVAVRTITDLANSLDVNASTLTRLATRLGFEGFAEFQGVFRNSMAQRHRHFYSQQAERLVGADNTGMPGGVSPEVGAVVQLAHESIQNVERFVARLSAEELRGAAELLAEAPRVRVHGLRQFSALASFLCYGLSMIRSDVGLLDAHGLGVAEGLAQLQRGDVVVVMSVAPYTRSVAEAAAAAAESGLTVIAITDTSASPLAAAARHAFFIPHESSFFSNSMGAYLIFCEGLLNLAATKLGKRSLRALARREQMIAALDIETE”, for which the “soluble on expression in E. coli” value was “not soluble”.

As for “RRSRKLERKKIVLGVTGSIAAVETVKLARELVRRGADVTAVMSRAARKIIHPYALEFATGKRVVTEITGSIEHVNLLGEYGDADLFLIAPCTANTISKIAQGIDDTPVTTFATTALGSGKPIIIVPAMHEAMMRNKAVLENIQRLIDMGIEFVQPRIEEGKAKFPSTETICLHVERELYPKEMKGKRVV”, the “soluble on expression in E. coli” value is listed as “not soluble”.
